Source: publication PMC4425550 (Nature medicine, 2015)
Where no end group is shown, it is not given here. The star is where a group is joined. Biotin = O=C1N[C@H]2[C@H](CS[C@H]2CCCCC(=O)*)N1

What was measured:
S1P receptor = assay: T cell transmigration with S1P receptor antagonist; assay type: cell-based, human; settings: W146 10 μM, 30 min, washed; n=3–7
[1] = test system: S1PR1 on memory T cells (CD3+CD45RO+); assay: S1PR1 surface expression on memory T cells on ICAM-1; assay type: cell-based, human
SPHK1/2 = assay: T cell transmigration with SPHK1/2 inhibitor; assay type: cell-based, human; settings: 5 μM on endothelial cells, 30 min 37°C, washed, n=3
[2] = test system: TNF-α&IFN-γ treated HUVEC; assay: PBL trans-endothelial migration, static, HUVEC; assay type: cell-based, human
[3] = test system: S1P receptor on T cells; stimulated endothelial cells; assay: T cell transmigration with exogenous S1P, B cell depleted PBL; assay type: cell-based, human
αLβ2 (LFA-1) = assay: LFA-1 activation epitope; assay type: cell-based, human; settings: S1P 10 µM after CXCL10 80 ng/ml, n=4
SPHK1 = assay: T cell transmigration with SPHK1 specific inhibitor; assay type: cell-based, human; settings: 5 μM on endothelial cells, 30 min 37°C, washed, n=3
B cells = settings: T1D and rheumatoid arthritis; cited from earlier work
[4] = test system: α4β1, αLβ2, CXCR3, DP-2 on PBL; assay: Expression/function of integrins, CXCR3 and DP-2 on PBL, flow cytometry; assay type: cell-based, human; settings: adiponectin 15 μg/ml, n=3
[5] = test system: lymphocytes from individuals with T1D; endothelial cells; assay: Ex vivo T cell transmigration, individuals with type-1-diabetes; settings: adiponectin 15 μg/ml or PEPITEM 10 ng/ml, n=9–22
[6] = test system: TNF-α&IFN-γ treated HUVEC; assay: PBL trans-endothelial migration under flow; settings: adiponectin pre-treated PBL, n=6
HDMEC = assay: PBL transmigration across HDMEC, static; assay type: cell-based, human; settings: TNF-α&IFN-γ stimulated HDMEC, n=3–4
[7] = test system: TNF-α&IFN-γ stimulated HUVEC; assay: Gene expression of adhesion molecules and chemokines in HUVEC, real-time PCR; assay type: cell-based, human; settings: TNF-α and IFN-γ stimulated endothelial cells
[8] = test system: endothelial cells (TNF-α and IFN-γ stimulated); assay type: cell-based, human
[9] = test system: TNF-α&IFN-γ stimulated endothelial cells; assay: PBL adhesion; assay type: cell-based, human; settings: adiponectin or PEPITEM
[10] = test system: lymphocytes from individuals with rheumatoid arthritis; endothelial cells; assay: Ex vivo T cell transmigration, individuals with rheumatoid arthritis; assay type: cell-based, human; settings: adiponectin 15 μg/ml or PEPITEM 10 ng/ml, n=7–8
recombinant CDH15-Fc = molecular target: T1, recombinant CDH15-Fc (UniProt P55291 61-606); assay: SPR
T1 sequence (looked up): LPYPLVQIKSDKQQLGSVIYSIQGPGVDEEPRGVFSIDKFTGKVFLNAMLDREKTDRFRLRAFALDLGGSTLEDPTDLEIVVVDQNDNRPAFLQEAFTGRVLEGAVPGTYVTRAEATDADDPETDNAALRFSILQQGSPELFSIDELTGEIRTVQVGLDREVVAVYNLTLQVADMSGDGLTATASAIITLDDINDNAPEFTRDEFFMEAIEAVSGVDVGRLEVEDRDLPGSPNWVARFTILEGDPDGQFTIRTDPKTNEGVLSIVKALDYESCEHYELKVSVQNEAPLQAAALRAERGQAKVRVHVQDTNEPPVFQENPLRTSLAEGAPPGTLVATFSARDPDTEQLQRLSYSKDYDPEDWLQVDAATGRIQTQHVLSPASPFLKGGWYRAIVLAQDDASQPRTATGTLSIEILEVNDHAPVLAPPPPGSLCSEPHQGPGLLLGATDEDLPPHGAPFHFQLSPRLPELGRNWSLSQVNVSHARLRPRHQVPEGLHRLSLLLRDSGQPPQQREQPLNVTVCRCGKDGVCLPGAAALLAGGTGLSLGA

Molecule: CCCCCCc1cccc(NC(=O)[C@H](N)CCP(=O)(O)O)c1 [W146]
- T cell migration in the presence of adiponectin and PEPITEM with S1P receptor antagonist (S1P receptor): released T cells from the inhibitory effects of both adiponectin and PEPITEM

Molecule: CXCL10: chemokine
- surface S1PR1 on memory T cells on ICAM-1 ([1]; CXCL10 80 ng/ml, n=6): rapid up-regulation of surface S1PR1

Molecule: CCCCCCCCCCCCC/C=C/[C@@H](O)[C@H](CO)N(C)C [N,N-Dimethylsphingosine]
- ability of PEPITEM to inhibit T cell migration, SPHK1/2 inhibitor (SPHK1/2): abolished the ability of PEPITEM to inhibit T cell migration

Molecule: PEPITEM with a biotin conjugate on the N-terminus: PEPITEM with a biotin conjugate on the N-terminus (Biotin-SVTEQGAELSNEER)
- efficacy in functional migration assay [2]: full efficacy

Molecule: CCCCCCCCCCCCC/C=C/[C@@H](O)[C@@H](N)COP(=O)(O)O [S1P, Sphingosine-1-phosphate]
- T cell migration on adding exogenous S1P ([3]; S1P 0.0001 to 100 μM, 30 min, purified T cells / B cell depleted PBL, n=3–6): mimicked dose-dependently
- T cell transmigration at total circulating S1P concentration ([3]; S1P ≈0.2 μM): inhibited T cell transmigration efficiently
- affinity of LFA-1, binding to ICAM-1 (αLβ2 (LFA-1)): down-regulates the affinity
- surface S1PR1 in the presence of exogenous S1P ([1]; CXCL10 80 ng/ml + S1P 10 μM, n=4): high expression was maintained

Molecule: CCCCCCCCCCCCCC#CC(=O)[C@@H]1COC(C)(C)N1C(=O)OC(C)(C)C [SPHK1 inhibitor, 2,2-dimethyl-4S-(1-oxo-2-hexadecyn-1-yl)-1,1-dimethylester-3-oxazolidinecarboxylic acid]
- ability of PEPITEM to inhibit T cell migration, SPHK1 inhibitor (SPHK1): abolished the ability of PEPITEM to inhibit T cell migration

Molecule: rituximab: monoclonal antibody, B cell depletion
- clinical effect of B cell depletion (B cells): beneficial effects

B1: adiponectin: circulating adipokine (protein, UniProt Q15848 19-244, looked up)
Adiponectin: ETTTQGPGVLLPLPKGACTGWMAGIPGHPGHNGAPGRDGRDGTPGEKGEKGDPGLIGPKGDIGETGVPGAEGPRGFPGIQGRKGEPGEGAYVYRSAFSVGLETYVTIPNMPIRFTKIFYNQQNHYDGSTGKFHCNIPGLYYFAYHITVYMKDVKVSLFKKDKAMLFTYDQYQENNVDQASGSVLLHLEVGDQVWLQVYGEGERNGLYADNDNDSTFTGFLLYHDTN
- expression and/or function of integrins (α4β1, αLβ2), CXCR3, DP-2 on PBL [4]: did not alter
- T cell migration, individuals with T1D [5]: no longer an inhibition of T cell migration
- PBL transmigration under flow [6]: effects of adiponectin on PBL migration were seen
- PBL transmigration on HDMEC (HDMEC): evident
- gene expression of adhesion molecules and chemokines [7]: did not modulate
- T cell migration with supernatants from adiponectin stimulated B cells ([8]; B cells 100,000, adiponectin 15 μg/ml 1 h): as effective as addition of B cells themselves
- T cell migration after depleting B cells from PBL ([8]; adiponectin treated, n=3–7): T cells were released from the inhibitory effects of adiponectin
- T cell migration after adding back purified B cells ([8]; adiponectin, n=3–7): could reconstitute the adiponectin-dependent inhibition of T cell migration
- firm adhesion of PBL (surface adherent cells) [9]: more cells were firmly adherent to the apical surface of the endothelium
- T cell migration, individuals with rheumatoid arthritis [10]: no longer an inhibition of T cell migration
- PBL trans-endothelial migration ([2]; TNF-α and IFN-γ stimulated HUVEC, static): dose-dependently inhibited
- EC50 for inhibition of PBL trans-endothelial migration (mass concentration) ([2]; adiponectin, PBL pre-treated 1 h and washed, TNF-α and IFN-γ stimulated, static): 0.94 µg/mL

B2: N-terminus biotinylated PEPITEM (PEPtide Inhibitor of Trans-Endothelial Migration) (peptide)
peptide: Biotin-SVTEQGAELSNEER
- Kd (recombinant CDH15-Fc): 109 µM
